Measurements as given in patent publication US20090162366A1 (KIRIN PHARMA, published 2009).

Tests used:
[1] = target: T1, M2 expressed on MDCK cells infected with influenza A/PR/8/34 (influenza A virus A/PR/8/34, UniProt P06821 1-97); assay: cell ELISA, A/PR/8/34-infected MDCK
T1 construct: whole, on cells

[2] = target: T1, M2 expressed on MDCK cells infected …; assay: cell ELISA on infected MDCK cells
[3] = target: T1, M2 expressed on MDCK cells infected …; assay: cell ELISA, A/PR/8/34-infected MDCK, Ab 1 µg/ml, no peptide
[4] = target: T1, M2 expressed on MDCK cells infected …; assay: cell ELISA, A/PR/8/34-infected MDCK, Ab 1 µg/ml, competitor M2 peptide 20 µg/ml

T1 sequence (P06821 whole entry): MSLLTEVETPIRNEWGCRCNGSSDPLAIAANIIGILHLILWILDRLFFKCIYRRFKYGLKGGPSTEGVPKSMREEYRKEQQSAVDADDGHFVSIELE

Row | Binder | fold greater reactivity than F1 and F2 [1] | EC50 [2] | OD450 [3] | OD450 with competitor [4]
1 | N547 (antibody, V domains shown) VH: not shown VL: QSVLTQPPSMSAAPGQKVTISCSGSSSNIGNNYISWYQQLPGTAPKVLIYDNNKRPSGIPDRFSGSKSGTSATLGITGLQTGDEADYYCGSWDSSLSAGVFGTGTKVTVLG | > 100 fold | 0.104 µg/mL | 0.504 OD450 | 0.062 OD450
2 | L66 (antibody, V domains shown) VH: EVQLVESGGGVVRPGGSLRLSCAASGFTFDDYGMSWVRQAPGKGLEWVSGINWNGGSTGYADSVKGRFTISRDNAKNSLYLQMNSLRAEDTALYYCARDRVTMVRGVIMDYYGMDVWGQGTTVTVSS VL: QTVVTQEPSLTVSPRGTVTLTCSSSTGAVTSGYYPGWFQLKPGQAPMSLIYSARKKHSWTPARFSGSLLGGKAALTLSGVQPEDEAEYYCLLYYGGAYVFGTGTKVTVLG | > 100 fold | 0.117 µg/mL | 0.931 OD450 | 0.113 OD450
3 | C40G1 (antibody, V domains shown) VH: QLQLQESGPGLVKPSETLSLTCTVSGGSISSSFYYCGWIRQPPGKGLEWIGSIYYRGSTYYNPSLKSRVTISVDTSKNQFSLKLSSVTAADTAVYYCARRVTMVRGVKGDYFDYWGQGTLVTVSS VL: DIQMTQSPSSLSASVGDRVTITCRASQGISSWLAWYQQKPEKVPKSLIYAASSLQSGVPSRFSGSGSGTDFTLTISSLQPEDFATYYCQQYNYYPLTFGGGTKVEIKR | > 100 fold | 0.183 µg/mL | 0.799 OD450 | 0.195 OD450
4 | C40G4 (antibody, V domains shown) VH: QLQLQESGPGLVKPSETLSLTCTVSGGSISSSFYYCGWIRQPPGKGLEWIGSIYYRGSTYYNPSLKSRVTISVDTSKNQFSLKLSSVTAADTAVYYCARRVTMVRGVKGDYFDYWGQGTLVTVSS VL: DIQMTQSPSSLSASVGDRVTITCRASQGISSWLAWYQQKPEKVPKSLIYAASSLQSGVPSRFSGSGSGTDFTLTISSLQPEDFATYYCQQYNYYPLTFGGGTKVEIKR |  | 0.301 µg/mL |  | 
